Assay results reported in the supplement of paper PMC12042874.
± gives the uncertainty stated by the source.

Test: amyloid nucleation score (Sup35N fusion, yeast selection) (log enrichment); library NNK2; higher = more nucleation; inactive = no reads after selection
Outline: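 In psi-negative yeast, Sup35N fusions carrying peptides of 20 random codons were induced with 100 μM copper sulfate for 24 hours. The cells then grew 7 days at 30°C on medium lacking adenine and uracil, and plasmid inserts from input and output were Illumina-sequenced, excluding sequences with under 100 input reads. Nucleation score is the DiMSum log enrichment of output over input reads, centred on the mode score of non-aggregating sequences.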

Substance | amyloid nucleation score
CLDFYFIVGNFNQHLVRCVL | 1.79 ± 0.16
CLDNNKNYLDSRCGIRCY | inactive
CLINMTIYGERWRCVNDVPN | 3.54 ± 0.052
CLKFFADGSQAGCSERAGLR | 0.041 ± 0.28
CLLLLCNPRISAE | -0.582 ± 0.76
CLMDCGLYFTGSNLRAMCTW | -0.223 ± 0.49
CLNKIETPSTVKFRECHCCD | 4.517 ± 0.041
CLNPFDSYGTSYCKCWWSAT | -0.451 ± 0.33
CLNTLFVEFRCLSMGACCGI | 1.1 ± 0.31
CLPFYCTFGSVVARAGVYH | inactive
CLQCQLIRRGLTKMNMGFAS | -0.023 ± 0.45
CLRFC | -0.453 ± 1.1
CLSGLLIWAHHSLKLDVLIG | 0.366 ± 0.64
CLVWLDI | -1.11 ± 0.55
CLYCGDLLLRFEYKCRGVNQ | 5.15 ± 0.092
CLYRRLYKLALNMEIIILRY | inactive
CMFSLNGAYSMPHVKMSMCM | -0.786 ± 0.46
CMKGVNSLDIASVSQFNLNR | 2.28 ± 0.13
CMSNAKCKGVDFAAGKLLSC | -0.004 ± 0.49
CMSRFGRCNFVHDTWMGFTR | 2.93 ± 0.1
CMWWIHDPGRDRLKELKVAR | 0.452 ± 0.36
CNCQMGDVLEGLGDVGLNNF | -1.65 ± 0.62

Substance | amyloid nucleation score
CNEDFLSQLVVLHFKEYGDN | inactive
CNERFERLFISVTGFVMRRH | -0.358 ± 0.39
CNLSVVYLLDMAD | 3.99 ± 0.044
CNMLRVNHRNLVLTDMCNG | 0.204 ± 0.8
CNNCYALYHDGV | -0.396 ± 0.39
CNTLLTFNYNAYVIEVM | 0.839 ± 0.17
CNVHWGRL | 0.089 ± 0.8
CNYKYSDLVFHCLPPGRGYN | inactive
CPCYCLTSFACLGNSVPTWR | 10.15 ± 0.043
CPMCTFLCCLAFY | 8.626 ± 0.04
CQCSVSVGNTDSHNLPKVYV | -0.221 ± 1.1
CQMYYFYFNLLMWDMA | inactive
CQPNLWARVCLVWCYW | 3 ± 0.094
CRIGA | -0.252 ± 0.28
CRLPQQKPHEMPTLDDFARS | 0.553 ± 0.44
CRNCLLGHLRLVTHHVRILY | inactive
CRSCVVSYCGCEYLESLGGK | 0.525 ± 0.64
CRVNRGRGNSTTLYMMDFGY | 2.7 ± 0.088
CRWISTTLIFARCELFRLAV | 0.567 ± 0.38
CSCEVALIIK | inactive
CSCGYMKANR | -0.721 ± 1
CSCHKSSCLRTTFCLEHSSG | 6.866 ± 0.062

Substance | amyloid nucleation score
CSDRSICFANSYFEF | -0.101 ± 0.63
CSHPFDYVQTILRTVTLFLI | -0.114 ± 0.63
CSINLRAYPVLSRGATVACK | 0.755 ± 0.55
CSLFYRSS | 4.06 ± 0.056
CSLQYYSLRNDRDRVTELRR | 0.475 ± 0.51
CSLTSFAGNSIYFRWRANT | 1.18 ± 0.14
CSMKYGCRVYVRNPSLSECD | 0.547 ± 0.45
CSNYQRYTILVYPTRSYGCL | 0.558 ± 0.6
CSRGP | 0.534 ± 0.64
CSTTWGDTIAGHEAGLVSLS | 1.02 ± 0.37
CTIRLECLLA | -0.428 ± 0.46
CTLRGGYISWVQVYE | 2.1 ± 0.1
CTPLGFCSKNRLGLQEDGVK | -0.788 ± 0.76
CTSHWAYEDEDFFIDRLYFT | -0.796 ± 0.3
CTTSWKMSCKFALGN | 4.04 ± 0.07
CTWDFNDHFMLVQNNDEQLW | 0.087 ± 0.79
CVDSKWLYFGRWSTQVIDI | -0.196 ± 1
CVGGVSNCMRYGKTFRDESY | -0.438 ± 0.27
CVMFTLSCVNFDCDCSCRWK | 6.31 ± 0.084
CVMIESLKVFISPWLASRIR | -0.291 ± 0.65
CVMNF | -0.586 ± 0.42
CVNITYI | 4.625 ± 0.031

Substance | amyloid nucleation score
CVRCTFCIVSVICFSIYLSE | -0.448 ± 0.55
CVSVAFNRNISWW | -0.021 ± 0.34
CVTRMDYTDVSDMHLM | 0.307 ± 0.56
CVWHVF | inactive
CVYEIPKM | 3.09 ± 0.048
CWGVVGSAAGWYSGTK | 1.46 ± 0.21
CWRVDSFVLGNHNGIGVCFV | -0.918 ± 0.41
CYAIMNGVSFLDLIGGARET | 5.85 ± 0.077
CYFNARSDSVNVYVV | -0.029 ± 1.1
CYGVFLVVSWDHGGDQIGVV | -0.482 ± 0.48
CYHVTLMR | 0.718 ± 0.26
CYIRSVFSQWLTACLVNWFM | -1.86 ± 1.1
CYISFWARRFDEYLSLLSFA | -0.343 ± 0.42
CYLMKSFMNLSDRNVFGNVT | -0.295 ± 0.32
CYRHSERYRTSSLLSWERGP | 0.783 ± 0.57
CYWWDWVLY | -0.032 ± 0.45
DAFWLWSFIWACVLCFTKHR | -0.549 ± 0.45
DAFYDS | -2.05 ± 0.75
DAKRVQIYF | 1.02 ± 0.68
DANLQIH | -0.774 ± 0.45
DARSDVF | inactive
